How the values were obtained:
Assay in all cases: flow cytometry on cells; on-yeast binding titration: single yeast colonies each displaying an IL-6 variant; biotinylated gp130 from 1 μM, eight concentrations in a 1/3 dilution series; apparent KD
[1] = target: IL-6 variant Mut1 displayed on yeast (human) (UniProt P05231)
[2] = target: IL-6 variant Mut3 displayed on yeast (human) (UniProt P05231)
[3] = target: IL-6 variant Mut7 displayed on yeast (human) (UniProt P05231)
Sequence of IL-6 variant Mut7 displayed on yeast (human) (P05231 30-212, change not shown): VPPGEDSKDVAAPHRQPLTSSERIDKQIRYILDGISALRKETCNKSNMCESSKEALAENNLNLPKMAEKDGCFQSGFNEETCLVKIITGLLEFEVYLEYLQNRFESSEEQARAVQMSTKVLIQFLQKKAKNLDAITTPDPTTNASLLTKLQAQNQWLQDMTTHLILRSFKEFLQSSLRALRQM

Sequence of biotinylated gp130 ectodomain (SD1-SD3, amino acids 23–321) (P40189 23-321): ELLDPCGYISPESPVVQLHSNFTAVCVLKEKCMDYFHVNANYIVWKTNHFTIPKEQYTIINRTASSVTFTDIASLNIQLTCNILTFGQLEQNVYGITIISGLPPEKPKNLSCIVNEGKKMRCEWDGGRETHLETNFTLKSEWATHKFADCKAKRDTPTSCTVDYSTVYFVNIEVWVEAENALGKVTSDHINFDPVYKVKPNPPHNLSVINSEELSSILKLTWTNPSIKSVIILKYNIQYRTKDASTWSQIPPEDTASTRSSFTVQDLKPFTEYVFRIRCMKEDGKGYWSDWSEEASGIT
Sequence of IL-6 variant Mut3 displayed on yeast (human) (P05231 30-212, change not shown): as the sequence (P05231 30-212, change not shown) above
Sequence of IL-6 variant Mut1 displayed on yeast (human) (P05231 30-212, change not shown): as above

- Kd [1]: 2 nM
- Kd [2]: 2 nM
- Kd [3]: 2 nM
Substance: biotinylated gp130 ectodomain (SD1-SD3, amino acids 23–321) (from UniProt P40189 23-321) (domain or fragment)

From PMC6914340
